{"source": "paper PMC10039900", "about": "“Characterization of human oxidoreductases involved in aldehyde odorant metabolism” (Scientific Reports, 2023)", "biological_target": "the molecule itself", "assay": "crystal structure; sitting drop vapor diffusion at 20 °C, ALDH3A1 2 mg/ml, 18% PEG 3350 in 0.1 M potassium acetate pH 7.5; crystals soaked in mother liquor plus 10 mM octanal; 1.80 Å", "data": [{"protein": "aldehyde dehydrogenase family 3 member A1 (ALDH3A1) (enzyme, human, human ALDH3A1, UniProt P30838; Subcloned between NdeI and SacI; The crystal was soaked with 10 mM octanal (a small molecule, not a partner); also called aldehyde dehydrogenase 3A1; Aldehyde dehydrogenase, dimeric NADP-preferring; source: E. coli BL21(DE3), purified (two ammonium sulfate precipitations, two chromatography steps)) SKISEAVKRARAAFSSGRTRPLQFRIQQLEALQRLIQEQEQELVGALAADLHKNEWNAYYEEVVYVLEEIEYMIQKLPEWAADEPVEKTPQTQQDELYIHSEPLGVVLVIGTWNYPFNLTIQPMVGAIAAGNSVVLKPSELSENMASLLATIIPQYLDKDLYPVINGGVPETTELLKERFDHILYTGSTGVGKIIMTAAAKHLTPVTLELGGKSPCYVDKNCDLDVACRRIAWGKFMNSGQTCVAPDYILCDPSIQNQIVEKLKKSLKEFYGEDAKKSRDYGRIISARHFQRVMGLIEGQKVAYGGTGDAATRYIAPTILTDVDPQSPVMQEEIFGPVLPIVCVRSLEEAIQFINQREKPLALYMFSSNDKVIKKMIAETSSGGVAANDVIVHITLHSLPFGGVGNSGMGSYHGKKSFETFSHRRSCLVRPLMNDEGLKVRYPPSPAKMTQH", "values": [{"measurement": "binding result", "value": "binds"}]}]}
